This is an account of results in US20150218286A1.

This experiment addresses CD22 (human) (UniProt P20273). Briefly: cell-based or functional assay.

Turning to HA22-LR-KDEL, the LC50, 697 cells (ALL) was found to be 0.2 ng/mL; the LC50, EU cells (ALL) was 0.3 ng/mL; the LC50, KOPN 8 cells (ALL) is 0.3 ng/mL; the LC50, NALM 6 cells (ALL) stood at 1 ng/mL. Moreover, the LC50, RAJI cells (Burkitt) was found to be 0.2 ng/mL and the LC50, REH cells (ALL) is 0.2 ng/mL.

Turning to HA22-LR-8X, the LC50, 697 cells (ALL), second series stood at 1 ng/mL; the LC50, EU cells (ALL), second series worked out at 0.3 ng/mL; the LC50, KOPN 8 cells (ALL), second series was 0.4 ng/mL; the LC50, NALM 6 cells (ALL), second series came to 2 ng/mL. This substance also displayed an LC50, RAJI cells (Burkitt), second series of 0.2 ng/mL and an LC50, REH cells (ALL), second series of 0.5 ng/mL.
